B1: 21E9-222 (antibody, V domains shown)
VH: EVQLVESGGGLVQPGGSLRLSCAASGFDFSNYYYMCWVRQAPGKGLEWVSCIAAGSGGYTYYASWAKGRFTISRDNSKNTLYLQMNSLRAEDTAVYYCASSGDYKGFNLWGQGTLVTVS
VL: DIVMTQSPSSLSASVGDRVTITCQASQSISSYLAWYQQKPGKPPKLLIYGASNLASGVPSRFSGSGSGTDFTLTISSLQPEDVATYYCQGYYYSFSDIFAFGGGTKVEI
notes: Humanized 21E9; also called humanized aLYPD3 antibody 21E9-222
B2: 21E9-228 (antibody, V domains shown)
VH: QVQLQESGGGLVQPGGSLRLSCAASGFDFSNYYYMCWVRQAPGKGLEWVLCIAAGSGGYTYYASWAKGRFTISRDNSKNTLYLQMNSLRAEDTAIYYCASSGDYKGFNLWGQGTLVTVS
VL: AIRIAQSPSSLSASTGDRVTITCQASQSISSYLAWYQQKPGKAPKLLIYGASNLASGVPSRFSGSGSGTDFTLTISCLQSEDFATYYCQGYYYSFSDIFAFGQGTKVEI
notes: Humanized 21E9; also called humanized aLYPD3 antibody 21E9-228
B3: 21E9-227 (antibody, V domains shown)
VH: QVQLVESGGGLVKPGGSLRLSCAASGFDFSNYYYMCWIRQAPGKGLEWVSCIAAGSGGYTYYASWAKGRFTISRDNAKNSLYLQMNSLRAEDTAVYYCASSGDYKGFNLWGQGTLVTVS
VL: AIRIAQSPSSLSASTGDRVTITCQASQSISSYLAWYQQKPGKAPKLLIYGASNLASGVPSRFSGSGSGTDFTLTISCLQSEDFATYYCQGYYYSFSDIFAFGQGTKVEI
notes: Humanized 21E9; also called humanized aLYPD3 antibody 21E9-227
B4: 21E9-220 (antibody, V domains shown)
VH: QVQLQESGGGLVQPGGSLRLSCAASGFDFSNYYYMCWVRQAPGKGLEWVLCIAAGSGGYTYYASWAKGRFTISRDNSKNTLYLQMNSLRAEDTAIYYCASSGDYKGFNLWGQGTLVTVS
VL: DIVMTQSPSSLSASVGDRVTITCQASQSISSYLAWYQQKPGKPPKLLIYGASNLASGVPSRFSGSGSGTDFTLTISSLQPEDVATYYCQGYYYSFSDIFAFGGGTKVEI
notes: Humanized 21E9; also called humanized aLYPD3 antibody 21E9-220
B5: 21E9-221 (antibody, V domains shown)
VH: EVQLVESGGGLVQPGGSLRLSCAASGFDFSNYYYMCWVRQAPGKGLEWVSCIAAGSGGYTYYASWAKGRFTISRDNSKNTLYLQMNSLRAEDTAVYYCASSGDYKGFNLWGQGTMVTVS
VL: DIVMTQSPSSLSASVGDRVTITCQASQSISSYLAWYQQKPGKPPKLLIYGASNLASGVPSRFSGSGSGTDFTLTISSLQPEDVATYYCQGYYYSFSDIFAFGGGTKVEI
notes: Humanized 21E9; also called humanized aLYPD3 antibody 21E9-221
B6: 21E9-224 (antibody, V domains shown)
VH: EVQLVESGGGLVQPGGSLRLSCAASGFDFSNYYYMCWVRQAPGKGLEWVSCIAAGSGGYTYYASWAKGRFTISRDNSKNTLYLQMNSLRAEDTAVYYCASSGDYKGFNLWGQGTLVTVS
VL: EIVMTQSPSSLSASVGDRVTITCQASQSISSYLAWYQQKPGKAPKLLIYGASNLASGVPSRFSGSGSGTDFTLTISSLQPEDFATYYCQGYYYSFSDIFAFGGGTKVEI
notes: Humanized 21E9; also called humanized aLYPD3 antibody 21E9-224
B7: 21E9-219 (antibody, V domains shown)
VH: LVQLVESGGGLVKPGGSLRLSCAASGFDFSNYYYMCWIRQAPGKGLEWVSCIAAGSGGYTYYASWAKGRFTISRDNAKNSLYLQMNSLRAEDTAVWYCASSGDYKGFNLWGQGTLVTVS
VL: DIVMTQSPSSLSASVGDRVTITCQASQSISSYLAWYQQKPGKPPKLLIYGASNLASGVPSRFSGSGSGTDFTLTISSLQPEDVATYYCQGYYYSFSDIFAFGGGTKVEI
notes: Humanized 21E9; also called humanized aLYPD3 antibody 21E9-219
B8: 21E9-226 (antibody, V domains shown)
VH: EVQLVESGGGLVQPGGSLRLSCAASGFDFSNYYYMCWVRQAPGKGLEWVSCIAAGSGGYTYYASWAKGRFTISRDNSKNTLYLQMNSLRAEDTAVYYCASSGDYKGFNLWGQGTLVTVS
VL: EIVMTQSPSSLSASVGDRVTITCQASQSISSYLAWYQQKPGKPPKLLIYGASNLASGVPSRFSGSGSGTDFTLTISSLQPEDVATYYCQGYYYSFSDIFAFGGGTKLEI
notes: Humanized 21E9; also called humanized aLYPD3 antibody 21E9-226
B9: 21E9-225 (antibody, V domains shown)
VH: EVQLVESGGGLVQPGGSLRLSCAASGFDFSNYYYMCWVRQAPGKGLEWVSCIAAGSGGYTYYASWAKGRFTISRDNSKNTLYLQMNSLRAEDTAVYYCASSGDYKGFNLWGQGTLVTVS
VL: AIRIAQSPSSLSASTGDRVTITCQASQSISSYLAWYQQKPGKAPKLLIYGASNLASGVPSRFSGSGSGTDFTLTISCLQSEDFATYYCQGYYYSFSDIFAFGQGTKVEI
notes: Humanized 21E9; also called humanized aLYPD3 antibody 21E9-225

Molecular target: T1, O-glycosylated LYPD3-STP-ECD (expressed in and purified from NM-F9 cells) (human, UniProt O95274 234-303, O-glycosylated on Ser/Thr by NM-F9 cells: predominantly TF (Galβ1-3GalNAcα1-), lower amounts of Tn)
T1 construct: also called NM-F9-derived LYPD3-STP; STP-rich C-terminal part of the ECD; not shown: fusion partner for purification and detection, e.g. Twin-Strep-tag, MBL or polyhistidine tag; which one and at which end
T1 sequence: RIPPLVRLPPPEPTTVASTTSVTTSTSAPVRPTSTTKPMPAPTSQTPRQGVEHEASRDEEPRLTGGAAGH
Assay: ELISA and flow cytometry (FIGS. 14, 15 and 16)
Experimental: Briefly, differently glycosylated and non-glycosylated protein antigens or glycans conjugated to carbohydrate-polyacrylamide conjugates (carbohydrate PAA-conjugates, GlycoNZ) were coated to 96-well plates overnight, unspecific binding was blocked and test antibody samples were added. In some assays an anti-huLYPD3 huIgG1 control monoclonal Ab was used, that was purified from CHO cell supernatant after expression of the antibody sequence derived from patent application WO 2011/070088 A1 (SEQ ID NOs: 51 and 52 of WO 2011/070088) (“aLYPD3 mAb”). This control anti-huLYPD3 antibody binds to the extracellular domain of human LYPD3 in a glycosylation-independent manner. To control protein antigen coating to the ELISA plates anti-huLYPD3 rabbit polyclonal antibody (R&D Systems, cat. no. AF5428) (“aLYPD3 pAb”) or a-MBL antibody (Novusbio) (“aMBL”) for constructs expressed as MBL fusion protein were used. Antibodies recognizing specific glycan structures were used to detect glycosylation of the coated proteins. Anti-TFa (“aTF”) antibody clone HH8 was kindly provided by Prof. Clausen, University of Copenhagen. Antibodies specifically recognizing Tn (“aTn”) were either purchased from SBH Sciences or also provided by Prof. Clausen, University of Copenhagen (clone 5F4). Afterwards, peroxidase conjugated anti-IgG secondary antibody was added, followed by 3,3′,5,5′-tetramethylbenzidine (TMB) substrate reaction. Antibody binding rates were determined by measurement absorbance at 450 nm and 620 or 630 nm as reference wavelength using a multimode microplate reader (PerkinElmer EnSpire 2300 or Tecan Spark).
Binding of aLYPD3 clones to cell lines with different glycosylation status of LYPD3 was tested. LYPD3-transfected NM-F9 (LYPD3-F9), expressing LYPD3 carrying non-sialylated O-glycans, not transfected NM-F9 (corresponding WT cells), expressing endogenous level of LYPD3, and LYPD3-transfected HEK-O-glyc KO (LYPD3-HEK-O-glyc. KO) expressing LYPD3 without O-glycans, were stained with aLYPD3 clones and detected via fluorophore-coupled anti-human-IgG secondary reagent. Expression of LYPD3 and TFa was confirmed using control aLYPD3 pAb and mAb and aTF mAb. To determine background staining, an irrelevant hIgG1 control was included. DAPI was used to discriminate live from dead cells. Cells were analyzed using a Canto II (BD) flow cytometer.

Does B1 bind?
Result: binds

Does B2 bind?
Result: binds

Does B3 bind?
Result: binds

Does B4 bind?
Result: binds

Does B5 bind?
Result: binds

Does B6 bind?
Result: binds

Does B7 bind?
Result: binds

Does B8 bind?
Result: binds

Does B9 bind?
Result: binds

— US20250074999A1 (PENTIXAPHARM, published 2025)
